Measurements from publication doi:10.1101/2021.08.20.457040 (bioRxiv, 2021).

How the values were obtained:
[1] = target: T1, His6-GIGYF2 GYF domain (residues 529-597) (human, UniProt Q6Y7W6 529-597); assay: pull-down
T1 sequence (looked up): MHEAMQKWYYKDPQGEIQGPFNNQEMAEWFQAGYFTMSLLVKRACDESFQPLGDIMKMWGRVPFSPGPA

[2] = target: T2, His6-GIGYF1 GYF domain (residues 470-538) (human, UniProt O75420 470-538); assay: pull-down
T2 sequence (looked up): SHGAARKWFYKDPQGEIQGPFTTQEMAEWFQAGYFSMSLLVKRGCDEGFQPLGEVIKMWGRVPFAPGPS

Binder: GWVPPPPGFAP (peptide, UniProt P26651 68-78, looked up) [GST-tagged fragment of the first tetra-proline region of TTP (residues 68-78)]
- binding result [1]: binds
- binding result [2]: binds
